Literature values in article PMC10650157.

Experiments:
[1] = biological target: apo-lactoferrin (Homo sapiens) (UniProt P02788)
[2] = biological target: apo-transferrin (Homo sapiens) (UniProt P02787)
Chain of UniProt P02787 (P02787 20-698): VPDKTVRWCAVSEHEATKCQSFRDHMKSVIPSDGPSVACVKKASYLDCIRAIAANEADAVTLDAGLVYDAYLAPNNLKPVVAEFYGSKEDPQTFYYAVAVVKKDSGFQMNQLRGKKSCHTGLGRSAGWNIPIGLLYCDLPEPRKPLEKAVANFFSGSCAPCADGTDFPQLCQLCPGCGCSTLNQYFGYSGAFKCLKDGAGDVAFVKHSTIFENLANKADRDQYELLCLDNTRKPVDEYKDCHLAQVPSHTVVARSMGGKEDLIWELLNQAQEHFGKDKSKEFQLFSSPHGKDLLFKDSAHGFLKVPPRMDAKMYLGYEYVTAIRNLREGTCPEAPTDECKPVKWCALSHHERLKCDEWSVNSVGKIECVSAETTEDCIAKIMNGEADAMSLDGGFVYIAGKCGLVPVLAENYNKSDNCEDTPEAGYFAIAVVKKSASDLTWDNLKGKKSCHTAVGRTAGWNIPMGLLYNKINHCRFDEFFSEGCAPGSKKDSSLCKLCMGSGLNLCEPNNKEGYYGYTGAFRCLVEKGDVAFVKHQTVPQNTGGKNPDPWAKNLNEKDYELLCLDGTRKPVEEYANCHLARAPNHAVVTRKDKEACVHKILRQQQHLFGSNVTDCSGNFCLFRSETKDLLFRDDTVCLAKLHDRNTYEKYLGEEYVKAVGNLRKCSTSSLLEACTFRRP

Chain of UniProt P02788 (P02788 20-710): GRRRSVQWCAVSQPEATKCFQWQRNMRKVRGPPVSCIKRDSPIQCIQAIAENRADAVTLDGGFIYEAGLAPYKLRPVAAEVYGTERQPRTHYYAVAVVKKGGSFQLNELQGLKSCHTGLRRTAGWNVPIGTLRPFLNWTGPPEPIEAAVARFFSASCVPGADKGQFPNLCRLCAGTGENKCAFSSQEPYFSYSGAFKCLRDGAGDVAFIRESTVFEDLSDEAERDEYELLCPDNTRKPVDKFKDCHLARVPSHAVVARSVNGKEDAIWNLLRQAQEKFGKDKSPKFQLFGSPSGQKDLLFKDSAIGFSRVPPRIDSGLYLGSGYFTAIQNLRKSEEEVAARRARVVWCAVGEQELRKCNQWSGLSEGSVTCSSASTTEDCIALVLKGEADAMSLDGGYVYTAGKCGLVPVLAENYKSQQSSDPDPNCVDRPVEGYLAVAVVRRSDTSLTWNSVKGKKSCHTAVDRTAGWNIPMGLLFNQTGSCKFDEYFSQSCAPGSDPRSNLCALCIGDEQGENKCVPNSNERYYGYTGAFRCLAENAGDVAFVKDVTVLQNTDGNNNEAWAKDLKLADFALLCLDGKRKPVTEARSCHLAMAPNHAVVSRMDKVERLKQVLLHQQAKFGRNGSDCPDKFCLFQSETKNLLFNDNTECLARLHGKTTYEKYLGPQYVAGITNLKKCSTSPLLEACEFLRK

Ceruloplasmin (from UniProt P00450)
Kd [1]: 7.4 µM | Kd [2]: 51.3 µM
